This passage reports Km and kcat results from paper PMC6568194, “Molecular and Biochemical Characterization of a Type II Thioesterase From the Zoonotic Protozoan Parasite Cryptosporidium parvum” (Frontiers in Cellular and Infection Microbiology, 2019).

Substrate in the data set: CCCCCCCCCC(=O)SCCNC(=O)CCNC(=O)[C@H](O)C(C)(C)COP(=O)(O)OP(=O)(O)OC[C@H]1O[C@@H](n2cnc3c(N)ncnc32)[C@H](O)[C@@H]1OP(=O)(O)O
Put plainly: purified protein. In kind it is biochemical, Cryptosporidium parvum. The note with it: 0.1 M HEPES pH 7.4, 50 mM KCl, 50 μM DTNB, MBP-tag background subtracted, temperature not given.

B1: CpTEII (MBP-CpTEII) (Cryptosporidium parvum Iowa II) (protein)
chain: MSKSDFDKWFPSYSKVNSHLINLGSRNQPICRLLCIHGAGGSDQIFVKKDLNTGRESSNILLDYAQENGIELLVLQLPGRAGRSHEACYEDIATLINDFYPVFKSHFFGKANLTEYIELIPWVIVGHSMGGLIGFELLKRIKFEQLKDFSAKFGVTDQSGFENKIVKLLREKRIFPELFIIMSSFPPNIPEYDRPWRKNEELNDEEFKQECREWGINQNVFKKGIWEEFEKQLRCDFTMFDSFEMNLVDKIFYCSNQSLYNFMYPLGVDAQLWSASQDSKVTKDIMNKWKELLTSNGNSLDTREIDAQHNFLHDPKARKEWMQDLSTSLDKIILDLEYY
notes: entire ORF (339 aa, 39 kDa) from genomic DNA, N-terminal MBP tag kept (intact fusion assayed), C-terminal His-tag, pMAL-c2e-TEV, expressed in E. coli Rosetta 2
Consider B1, for which the Km was determined as 172.2 µM and the kcat was found to be 1.52 min⁻¹.

The term Km denotes the concentration of substrate that gives half-maximal velocity. As a reminder, the kcat is the maximal rate divided by the concentration of active sites.
